Source: publication PMC12824264 (2025)

Legend:
ALK1-Fc [1] = molecular target: T1, ALK1-Fc (UniProt P37023 22-118); assay: SPR
ALK1-Fc [2] = molecular target: T1, ALK1-Fc; assay: SPR; remark: listed apart in the source

B1: BMP10 growth factor domain (GFD) dimer (ligand)
chain: NAKGNYCKRTPLYIDFKEIGWDSWIIAPPGYEAYECRGVCNYPLAEHLTPTKHAIIQALVHLKNSQKASKACCVPTKLEPISILYLDKGVVTYKFKYEGMAVSECGCR
- koff (ALK1-Fc [1]): 0.000169 s⁻¹

B2: sENG(D):BMP9 complex (complex)
chain 1: ETVHCDLQPVGPERGEVTYTTSQVSKGCVAQAPNAILEVHVLFLEFPTGPSQLELTLQASKQNGTWPREVLLVLSVNSSVFLHLQALGIPLHLAYNSSLVTFQEPPGVNTTELPSFPKTQILEWAAERGPITSAAELNDPQSILLRLGQAQGSLSFCMLEASQDMGRTLEWRPRTPALVRGCHLEGVAGHKEAHILRVLPGHSAGPRTVTVKVELSCAPGDLDAVLILQGPPYVSWLIDANHNMQIWTTGEYSFKIFPEKNIRGFKLPDTPQGLLGEARMLNASIVASFVELPLASIVSLHASSCGGRLQTSPAPIQTTPPKDTCSPELLMSLIQTKCADDAMTLVLKKELVAHLKCTITGLTFWDPSCEAEDRGDKFVLRSAYSSCGMQVSASMISNEAVVNILSSSSPQRKKVHCLNMDSLSFQLGLYLSPHFLQASNTIEPGQQSFVQVRVSPSVSEFLLQLDSCHLDLGPEGGTVELIQGRAAKGNCVSLLSPSPEGDPRFSFLLHFYTVPIPKTGTLSCTVALRPKTGSQDQEVHRTVFMRLNIISPDLSGCTSKG
chain 2: SAGAGSHCQKTSLRVNFEDIGWDSWIIAPKEYEAYECKGGCFFPLADDVTPTKHAIVQTLVHLKFPTKVGKACCVPTKLSPISVLYKDDMGVPTLKYHYEGMSVAECGCR
- koff (ALK1-Fc [1]): 0.000236 s⁻¹
- Kd (ALK1-Fc [2]): 0.422 nM

B3: sENG(M):BMP9 complex (complex)
chain 1: ETVHCDLQPVGPERGEVTYTTSQVSKGCVAQAPNAILEVHVLFLEFPTGPSQLELTLQASKQNGTWPREVLLVLSVNSSVFLHLQALGIPLHLAYNSSLVTFQEPPGVNTTELPSFPKTQILEWAAERGPITSAAELNDPQSILLRLGQAQGSLSFCMLEASQDMGRTLEWRPRTPALVRGCHLEGVAGHKEAHILRVLPGHSAGPRTVTVKVELSCAPGDLDAVLILQGPPYVSWLIDANHNMQIWTTGEYSFKIFPEKNIRGFKLPDTPQGLLGEARMLNASIVASFVELPLASIVSLHASSCGGRLQTSPAPIQTTPPKDTCSPELLMSLIQTKCADDAMTLVLKKELVAHLKCTITGLTFWDPSCEAEDRGDKFVLRSAYSSCGMQVSASMISNEAVVNILSSSSPQRKKVHCLNMDSLSFQLGLYLSPHFLQASNTIEPGQQSFVQVRVSPSVSEFLLQLDSCHLDLGPEGGTVELIQGRAAKGNCVSLLSPSPEGDPRFSFLLHFYTVPIPKTGTLSCTVALRPKTGSQDQEVHRTVFMRLNIISPDLSGCTSKG
chain 2: SAGAGSHCQKTSLRVNFEDIGWDSWIIAPKEYEAYECKGGCFFPLADDVTPTKHAIVQTLVHLKFPTKVGKACCVPTKLSPISVLYKDDMGVPTLKYHYEGMSVAECGCR
- koff (ALK1-Fc [1]): 0.000124 s⁻¹
- Kd (ALK1-Fc [2]): 0.179 nM

B4: sENG(D):BMP10 complex (complex)
chain 1: ETVHCDLQPVGPERGEVTYTTSQVSKGCVAQAPNAILEVHVLFLEFPTGPSQLELTLQASKQNGTWPREVLLVLSVNSSVFLHLQALGIPLHLAYNSSLVTFQEPPGVNTTELPSFPKTQILEWAAERGPITSAAELNDPQSILLRLGQAQGSLSFCMLEASQDMGRTLEWRPRTPALVRGCHLEGVAGHKEAHILRVLPGHSAGPRTVTVKVELSCAPGDLDAVLILQGPPYVSWLIDANHNMQIWTTGEYSFKIFPEKNIRGFKLPDTPQGLLGEARMLNASIVASFVELPLASIVSLHASSCGGRLQTSPAPIQTTPPKDTCSPELLMSLIQTKCADDAMTLVLKKELVAHLKCTITGLTFWDPSCEAEDRGDKFVLRSAYSSCGMQVSASMISNEAVVNILSSSSPQRKKVHCLNMDSLSFQLGLYLSPHFLQASNTIEPGQQSFVQVRVSPSVSEFLLQLDSCHLDLGPEGGTVELIQGRAAKGNCVSLLSPSPEGDPRFSFLLHFYTVPIPKTGTLSCTVALRPKTGSQDQEVHRTVFMRLNIISPDLSGCTSKG
chain 2: NAKGNYCKRTPLYIDFKEIGWDSWIIAPPGYEAYECRGVCNYPLAEHLTPTKHAIIQALVHLKNSQKASKACCVPTKLEPISILYLDKGVVTYKFKYEGMAVSECGCR
- koff (ALK1-Fc [1]): 0.000329 s⁻¹
- Kd (ALK1-Fc [2]): 2.97 nM

B5: BMP9 growth factor domain (GFD) dimer (ligand)
chain: SAGAGSHCQKTSLRVNFEDIGWDSWIIAPKEYEAYECKGGCFFPLADDVTPTKHAIVQTLVHLKFPTKVGKACCVPTKLSPISVLYKDDMGVPTLKYHYEGMSVAECGCR
- koff (ALK1-Fc [1]): 0.000162 s⁻¹

B6: sENG(M):BMP10 complex (complex)
chain 1: ETVHCDLQPVGPERGEVTYTTSQVSKGCVAQAPNAILEVHVLFLEFPTGPSQLELTLQASKQNGTWPREVLLVLSVNSSVFLHLQALGIPLHLAYNSSLVTFQEPPGVNTTELPSFPKTQILEWAAERGPITSAAELNDPQSILLRLGQAQGSLSFCMLEASQDMGRTLEWRPRTPALVRGCHLEGVAGHKEAHILRVLPGHSAGPRTVTVKVELSCAPGDLDAVLILQGPPYVSWLIDANHNMQIWTTGEYSFKIFPEKNIRGFKLPDTPQGLLGEARMLNASIVASFVELPLASIVSLHASSCGGRLQTSPAPIQTTPPKDTCSPELLMSLIQTKCADDAMTLVLKKELVAHLKCTITGLTFWDPSCEAEDRGDKFVLRSAYSSCGMQVSASMISNEAVVNILSSSSPQRKKVHCLNMDSLSFQLGLYLSPHFLQASNTIEPGQQSFVQVRVSPSVSEFLLQLDSCHLDLGPEGGTVELIQGRAAKGNCVSLLSPSPEGDPRFSFLLHFYTVPIPKTGTLSCTVALRPKTGSQDQEVHRTVFMRLNIISPDLSGCTSKG
chain 2: NAKGNYCKRTPLYIDFKEIGWDSWIIAPPGYEAYECRGVCNYPLAEHLTPTKHAIIQALVHLKNSQKASKACCVPTKLEPISILYLDKGVVTYKFKYEGMAVSECGCR
- koff (ALK1-Fc [1]): 0.00017 s⁻¹
- Kd (ALK1-Fc [2]): 1.68 nM
